Experimental data published in KR20230038028A (dated 2023).

Key:
Assay in all cases: western blot of E. coli lysate supernatant
His-S2p2(서열 686~1207) = target: T1, His-S2p2(서열 686~1207) (SARS-CoV-2, UniProt P0DTC2 686-1207)
T1 construct: range 686-1207

[1] = target: T2, His-S2p2-1(서열 686~1177 아미노산) (SARS-CoV-2, UniProt P0DTC2 686-1177)
T2 construct: range 686-1177

S2p2-2(서열 686~1144) = target: T3, S2p2-2(서열 686~1144) (SARS-CoV-2, UniProt P0DTC2 686-1144)
T3 construct: range 686-1144

Measured: binding result

B1: 항-스파이크2(Spike2, S2) 단일클론 항체 4A5 (antibody, V domains shown)
VH: QVKLEQSGPGILQPSQTLSLTCSFSGFSLSTSGMGVSWIRQSSGKGLEWLTHIYWDDDKRYNPSLKSRLTISKDTSRNQVFLKITSVDTADTATYYCARRRMITGLYYAMDYWGQGTSVTVSS
VL: DIVMTQSTLSLPVSFGDQVSISCRSSQSLANSYGITYLSWYLHKPGQSPQLLIYGISNRFSGVPDRFSGSGSGTDFTLKISTIKPEDLGMYYCLQGTHQPWTFGGGTKLEIKR
notes: also called 4A5 항체; 항-S2 항체 4A5
binds: all assays above
